Laboratory results: patent US12356911B2, “Group of UDP-glycosyltransferase for catalyzing carbohydrate chain elongation and application thereof” (GSYNBIOT (SHANGHAI) CO., LTD, priority 2017, dated 2025)
Where a chain is given by its changes, count along the chain named.

B1: GT29-42: Ginseng UDP-glycosyltransferase, 444 amino acids, SEQ ID NO.: 94 (protein)
chain: MDNQEGRISIALLPFLAHGHISPFFELAKQLAKRNCNVFLCSTPINLSSIKNKDSSASIKLVELHLPSSPDLPPHYHTTNGLPSHLMVPLINAFETAGPTFSEILKTLNPDLLIYDFNPSWAPEIASSHNIPAVYFLTTAAASSSIGLHAFKNPGEKYPFPDFYDNSNNTPEPPSADNMKLLHDFIACFERSCDIILIKSFIELEGKYIDLLSTLSDKTLVPVGPLVQDPMGHNEDPKTEQIINWLDKRAESTVVFVCFGSEYFLSNEELEEVAIGLEISMVNFIWAVRLIEGEKKGVLPEGFVQRVGDRGLVVEGWAPQARILGHSSTGGFVSHCGWSSIMESVKFGVPVIAMARHLDQPLNAKLAAEVGVGMEVMRDENGKYKREAIAEVIRKVVMEKNGEVMRRKARELSEKMKVKGEQEIGRAVEELVQICKKKKQHAQY
modifications: Panax ginseng
B2: GT29-23: Ginseng UDP-glycosyltransferase, 442 amino acids, SEQ ID NO: 124 (protein)
chain: MDNQEGRISIALLPFLAHGHISPFFELAKQLAKRNCNVFLCSTPINLSSIKNKDSSASIKLVELHLPSSPDLPPHYHTTNGLPSHLMVPLINAFETAGPTFSEILKTLNPDLLIYDFNPSWAPEIASSHNIPAVYFLTTAAASSSIGLHAFKNPGEKYPFPDFYDNSNNTPEPPSADNMKLLHDFIACFERSCDIILIKSFIELEGKYIDLLSTLSDKTLVPVGPLVQDPMGHNEDPKTEQIINWLDKRAESTVVFVCFGSEYFLSNEELEEVAIGLEISMVNFIWAVRLIEGEKKGVLPEGFVQRVGDRGLVVEGWAPHARILGHSSTGGFVSHCGWSSIAESMKFGVPVIAMARHLDQPLNGKLAAEVGVGMEVVRDENGKYKREGIAEVIRKVVVEKSGEVMRRKARELSEKMKEKGEEEIDRAVEELVQICKKKKDAQ
modifications: misc_feature - GT29-23; Panax ginseng
B3: GT29-22: Ginseng UDP-glycosyltransferase, 442 amino acids, SEQ ID NO: 122 (protein)
chain: MDNQKGRISIALLPFLAHGHISPFFELAKQLAKRNCNVFLCSTPINLSSIKDKDSSASIKLVELHLPSSPDLPPHYHTTNGLPSHLMLPLRNAFETAGPTFSEILKTLNPDLLIYDFNPSWAPEIASSHNIPAVYFLTTAAASSSIGLHAFKNPGEKYPFPDFYDNSNITPEPPSADNMKLLHDFIACFERSCDIILIKSFRELEGKYIDLLSTLSDKTLVPVGPLVQDPMGHNEDPKTEQIINWLDKRAESTVVFVCFGSEYFLSNEELEEVAIGLEISTVNFIWAVRLIEGEKKGILPEGFVQRVGDRGLVVEGWAPQARILGHSSTGGFVSHCGWSSIAEIMKFGVPVIAMARHLDQPLNGKLAAEVGVGMEVVRDENGKYKREGIAEVIRKVVVEKSGEVIRRKARELSEKMKEKGEQEIDRALEELVQICKKKKDEQ
modifications: misc_feature - GT29-22; Panax ginseng
B4: GT29-36: Ginseng UDP-glycosyltransferase, 442 amino acids, SEQ ID NO.: 90 (protein)
chain: B2 chain with E5K, N52D, V88L, I91R, N169I, I202R, H320Q
modifications: Panax ginseng
B5: GT29-37: Ginseng UDP-glycosyltransferase, 442 amino acids, SEQ ID NO.: 92 (protein)
chain: B3 chain with K5E, D52N, L88V, R91I, I344S
modifications: Panax ginseng
B6: GT29-43: Ginseng UDP-glycosyltransferase, 442 amino acids, SEQ ID NO.: 96 (protein)
chain: B3 chain with R249M, I344S
modifications: Panax ginseng
B7: GT29-33: Ginseng UDP-glycosyltransferase, 448 amino acids, SEQ ID NO: 6 (protein)
chain: MDIEKGRISIVMLPFLAHGHISPFFELAKHLSKRNCNIFLCSTPINLSSIKNRVSDKDSSASIKLVELHLPSSPDLPPHYHTTNGLPSHLMVPLRNAFETAAPTFSEILKTLNPDLLIYDFNPSWAPEIASSHNIPAVYFLTSAAATSSMGLHAFKNSGEKYPFPDFYDNSNITPEPPSADKMKLFHDFVACFKRSCDIILIKSFRELEGKYIDFLSTLSKKTLVPVGPLVQDPMGHDEDPKTGHLINWLDKRAESTVVFVCFGSEYFPSNEELEELAIGLEISMVSFILAVRFPEGEKKGILPEGFVQRVGDRGLVVEGWAPQSRILGHSSTGGFVSHCGWSSIMESVKFGVPVIAMARHLDQPLNAKLAAEVGVGMEVMRDENGKYKREAIAEVIRKVVMEKNGEVMRRKARELSEKMKVKGEQEIGRAVEELVQICKKKKQHAQY
modifications: misc_feature - GT29-33; Panax ginseng

Test: In vitro transglycosylation at C-3, Rd as glycosyl acceptor, UDP-xylose as donor
Assay type: biochemical
Settings: crude enzyme (E. coli lysate supernatant); TLC, FIG. 14

Row | Molecule | product formation from Rd and UDP-xylose (replacement of second glucose at C-3 with xylose)
1 | B1 | can all catalyze the replacement of the second glucose at C-3 position of Rd with xylose
2 | B2 | can all catalyze the replacement of the second glucose at C-3 position of Rd with xylose
3 | B3 | can all catalyze the replacement of the second glucose at C-3 position of Rd with xylose
4 | B4 | can all catalyze the replacement of the second glucose at C-3 position of Rd with xylose
5 | B5 | can all catalyze the replacement of the second glucose at C-3 position of Rd with xylose
6 | B6 | can all catalyze the replacement of the second glucose at C-3 position of Rd with xylose

Test: In vitro transglycosylation at C-3, Rh2 as glycosyl acceptor, UDP-glucose as donor
Assay type: biochemical
Settings: crude enzyme (E. coli lysate supernatant); TLC, FIG. 13, FIG. 15
Source text: (§1) Cell lysate of recombinant E. coli with empty vector pET28a was used as a control.

Row | Molecule | product formation from Rh2 and UDP-glucose (Rg3)
7 | B1 | can all catalyze the extension of a glucosyl at the C-3 glycosyl of Rh2 to generate Rg3
8 | B2 | can all catalyze the extension of a glucosyl at the C-3 glycosyl of Rh2 to generate Rg3
9 | B3 | can all catalyze the extension of a glucosyl at the C-3 glycosyl of Rh2 to generate Rg3
10 | B4 | can all catalyze the extension of a glucosyl at the C-3 glycosyl of Rh2 to generate Rg3
11 | B5 | can all catalyze the extension of a glucosyl at the C-3 glycosyl of Rh2 to generate Rg3
12 | B6 | can all catalyze the extension of a glucosyl at the C-3 glycosyl of Rh2 to generate Rg3

Test: In vitro transglycosylation at C-20, Rd as glycosyl acceptor, UDP-glucose as donor
Assay type: biochemical
Settings: crude enzyme (E. coli lysate supernatant); TLC/HPLC, FIG. 2, 3, 11
Source text: as §1

Row | Molecule | product formation from Rd and UDP-glucose (Rb1)
13 | B7 | can catalyze the formation of Rb1

Test: In vitro transglycosylation at C-20, CK as glycosyl acceptor, UDP-arabinose as donor
Assay type: biochemical
Settings: crude enzyme (E. coli lysate supernatant); TLC, FIG. 17

Row | Molecule | product formation from CK and UDP-arabinose (Ginsenoside F3)
14 | B7 | can catalyze the first glycosyl of C-20 of CK to extend an arabinosyl to generate Ginsenoside F3
